Data taken from paper PMC9864249.

Assays:
[1] = molecular target: GST-ZZUD (ZU5-ZU5-UPA-DD spectrin-binding domain of erythrocyte ankyrin, wild type) (human) (UniProt P16157); test: pull-down; sedimentation assay: GST-ZZUD or GST-ZZUDL1340P adsorbed on Glutathione Sepharose 4B; His(6)GFP–AnkBD 0–2 µM; 50 mM Tris–HCl, 150 mM NaCl, 2 mM DTT, pH 7.5; 30 min, room temperature; eluted with 75 mM GSH, bound GFP read by fluorescence; bare resin subtracted; one site-specific binding fit
[2] = molecular target: His(6)GFP–AnkBD (ankyrin-binding domain of erythrocyte β-spectrin, repeats 14–15) (human) (UniProt P11277); test: BLI; Octet K2; His(6)GFP–AnkBD loaded on Ni2+-NTA biosensor tips; GST-ZZUD or GST-ZZUDL1340P 0–2.5 µM in solution; 30 °C; 50 mM Tris–HCl, 150 mM NaCl, 2 mM DTT, pH 7.5; association 300 s, dissociation 300 s; curves compared by amplitude
UniProt P11277, sequence (P11277 whole entry, the tested form may be a part): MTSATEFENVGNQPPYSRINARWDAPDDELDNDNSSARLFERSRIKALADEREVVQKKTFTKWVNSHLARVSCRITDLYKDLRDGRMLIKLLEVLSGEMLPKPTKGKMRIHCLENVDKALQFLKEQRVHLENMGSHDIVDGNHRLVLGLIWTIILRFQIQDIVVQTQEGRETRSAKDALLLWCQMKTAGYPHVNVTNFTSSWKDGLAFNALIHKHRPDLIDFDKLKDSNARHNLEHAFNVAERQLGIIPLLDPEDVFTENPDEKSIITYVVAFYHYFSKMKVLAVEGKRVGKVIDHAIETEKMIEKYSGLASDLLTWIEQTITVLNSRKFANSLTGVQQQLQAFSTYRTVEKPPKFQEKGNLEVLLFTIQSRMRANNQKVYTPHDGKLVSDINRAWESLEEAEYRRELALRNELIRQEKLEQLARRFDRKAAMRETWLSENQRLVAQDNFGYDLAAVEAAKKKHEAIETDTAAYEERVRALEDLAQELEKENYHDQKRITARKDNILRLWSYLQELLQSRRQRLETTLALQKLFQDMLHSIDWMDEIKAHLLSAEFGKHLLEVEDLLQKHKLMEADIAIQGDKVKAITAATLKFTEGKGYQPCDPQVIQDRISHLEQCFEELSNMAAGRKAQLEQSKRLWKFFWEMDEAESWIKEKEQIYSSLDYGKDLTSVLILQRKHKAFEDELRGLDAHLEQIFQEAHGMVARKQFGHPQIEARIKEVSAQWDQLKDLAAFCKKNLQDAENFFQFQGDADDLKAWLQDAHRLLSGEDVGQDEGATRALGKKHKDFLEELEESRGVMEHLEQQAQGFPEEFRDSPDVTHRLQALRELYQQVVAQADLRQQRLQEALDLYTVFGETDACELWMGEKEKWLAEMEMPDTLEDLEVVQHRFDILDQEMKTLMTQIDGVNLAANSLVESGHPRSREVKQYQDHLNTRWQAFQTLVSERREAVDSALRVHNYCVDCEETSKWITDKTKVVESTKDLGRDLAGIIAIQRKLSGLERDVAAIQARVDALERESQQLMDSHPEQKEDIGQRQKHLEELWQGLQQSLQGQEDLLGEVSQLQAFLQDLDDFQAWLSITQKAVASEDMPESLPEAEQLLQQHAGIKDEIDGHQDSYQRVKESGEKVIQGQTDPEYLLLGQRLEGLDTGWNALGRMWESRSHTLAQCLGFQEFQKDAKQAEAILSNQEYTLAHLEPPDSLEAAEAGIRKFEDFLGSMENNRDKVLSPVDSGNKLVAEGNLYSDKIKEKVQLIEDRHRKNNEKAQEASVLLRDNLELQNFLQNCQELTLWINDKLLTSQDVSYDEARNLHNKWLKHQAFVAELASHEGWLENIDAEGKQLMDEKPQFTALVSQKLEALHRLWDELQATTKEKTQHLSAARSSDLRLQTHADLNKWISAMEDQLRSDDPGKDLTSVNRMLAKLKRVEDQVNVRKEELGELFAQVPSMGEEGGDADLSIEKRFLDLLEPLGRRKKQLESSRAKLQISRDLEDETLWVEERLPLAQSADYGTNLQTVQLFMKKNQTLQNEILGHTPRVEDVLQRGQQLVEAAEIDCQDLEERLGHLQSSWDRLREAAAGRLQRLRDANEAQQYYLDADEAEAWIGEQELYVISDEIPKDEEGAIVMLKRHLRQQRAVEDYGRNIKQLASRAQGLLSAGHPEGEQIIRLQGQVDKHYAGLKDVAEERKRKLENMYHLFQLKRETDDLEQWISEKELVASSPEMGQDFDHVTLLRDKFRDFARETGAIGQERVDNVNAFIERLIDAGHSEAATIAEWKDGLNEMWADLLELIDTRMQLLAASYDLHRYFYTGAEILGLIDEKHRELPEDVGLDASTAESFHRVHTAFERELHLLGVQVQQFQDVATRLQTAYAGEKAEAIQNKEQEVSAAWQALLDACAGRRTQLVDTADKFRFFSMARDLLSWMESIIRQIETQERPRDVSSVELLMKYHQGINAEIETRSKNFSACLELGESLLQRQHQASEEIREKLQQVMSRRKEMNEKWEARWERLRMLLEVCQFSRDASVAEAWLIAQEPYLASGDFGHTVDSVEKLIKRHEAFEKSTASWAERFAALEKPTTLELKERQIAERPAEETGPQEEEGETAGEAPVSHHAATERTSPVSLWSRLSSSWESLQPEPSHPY

His(6)GFP–AnkBD (ankyrin-binding domain of erythrocyte β-spectrin, repeats 14–15) (from UniProt P11277 1-2137) (domain or fragment)
Kd [1]: 1040 nM

B1: GST-ZZUDL1340P (ZZUD domain of erythrocyte ankyrin with the spherocytosis-related L1340P substitution) (domain or fragment)
chain: TGFLVSFMVDARGGSMRGSRHNGLRVVIPPRTCAAPTRITCRLVKPQKLSTPPPLAEEEGLASRIIALGPTGAQFLSPVIVEIPHFASHGRGDRELVVLRSENGSVWKEHRSRYGESYLDQILNGMDEELGSLEELEKKRVCRIITTDFPLYFVIMSRLCQDYDTIGPEGGSLKSKLVPLVQATFPENAVTKRVKLALQAQPVPDELVTKLLGNQATFSPIVTVEPRRRKFHRPIGLRIPLPPSWTDNPRDSGEGDTTSLRLLCSVIGGTDQAQWEDITGTTKLVYANECANFTTNVSARFWLSDCPRTAEAVNFATLLYKELTAVPYMAKFVIFAKMNDPREGRLRCYCMTDDKVDKTLEQHENFVEVARSRDIEVLEGMSLFAELSGNLVPVKKAAQQRSFHFQSFRENRLAMPVKVRDSSREPGGSPSFLRKAMKYEDTQHILCHLNITMPPCAKGSGAEDRRRTPTPLALRYSILSESTPGSLSGTEQAEMKMAVISEHLGLSWAELARELQFSVEDINRIRVENPNSLLEQSVALLNLWVIREGQNANMENLYTALQSIDRGEIVNMLEGSGRQSRN
fold decrease in the binding response compared to the WT [2]: 3 fold
